The values that follow are results of earlier work, collected in PMC2678197.

Series [1] deals with CCR3 N-terminal peptide (truncated, non-sulfated) 8-23 (Homo sapiens) (UniProt P51677).
Series [2] addresses CCR3 N-terminal peptide (35 residues, non-sulfated) 1-35 (Homo sapiens) (UniProt P51677).
Series [3] concerns the target CCR5 N-terminal peptide (bis-sulfated) N-terminal region (Homo sapiens) (UniProt P51681). Put plainly: NMR.
The target in series [4] is CCR5 N-terminal peptide (unsulfated) N-terminal region (Homo sapiens) (UniProt P51681). Put plainly: NMR.
Chain of CCR5 N-terminal peptide (unsulfated) N-terminal region (Homo sapiens) (P51681 1-27): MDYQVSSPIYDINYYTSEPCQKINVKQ

Chain of eotaxin (P51671 24-97): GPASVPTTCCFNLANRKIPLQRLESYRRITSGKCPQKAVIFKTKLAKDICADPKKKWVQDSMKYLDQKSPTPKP
Chain of RANTES (P13501 27-91): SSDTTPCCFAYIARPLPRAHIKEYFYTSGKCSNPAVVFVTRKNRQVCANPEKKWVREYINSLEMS
Chain of CCR3 N-terminal peptide (35 residues, non-sulfated) 1-35 (Homo sapiens) (P51677 1-35): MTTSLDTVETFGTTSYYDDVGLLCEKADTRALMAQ

What is called Kd is a measure of binding affinity in units of concentration. On to eotaxin (from UniProt P51671), for which the Kd in series [1] is 136 µM; in series [2] it was 80 µM.

Take RANTES (from UniProt P13501): the Kd is under 20 µM in series [3] and 168 µM in series [4].
